Experimental data reported in US20040259244A1, “Methods, compositions, and growth and differentiation factors for insulin-producing cells” (priority 2002, published 2004).

B1: Betacellulin: growth and differentiation factor (protein, UniProt P35070 32-111, looked up)
Betacellulin: DGNSTRSPETNGLLCGDPEENCAATTTQSKRKGHFSRCPKQYKHYCIKGRCRFVVAEQTPSCVCDEGYIGARCERVDLFY
B2: P1GF: Placental GF, human (protein, UniProt P49763 19-221, looked up)
Placenta growth factor: LPAVPPQQWALSAGNGSSEVEVVPFQEVWGRSYCRALERLVDVVSEYPSEVEHMFSPSCVSLLRCTGCCGDENLHCVPVETANVTMQLLKIRSGDRPSYVELTFSQHVRCECRHSPGRQSPDMPGDFRADAPSFLPPRRSLPMLFRMEWGCALTGSQSAVWPSSPVPEEIPRMHPGRNGKKQQRKPLREKMKPERCGDAVPRR
B3: TGF beta sRII: TGF beta soluble receptor type 2 (protein, UniProt P37173 23-166, looked up)
extracellular domain: TIPPHVQKSVNNDMIVTDNNGAVKFPQLCKFCDVRFSTCDNQKSCMSNCSITSICEKPQEVCVAVWRKNDENITLETVCHDPKLPYHDFILEDAASPKCIMKEKKKPGETFFMCSCSSDECNDNIIFSEEYNTSNPDLLLVIFQ
modifications: extracellular domain
B4: Prolactin: A growth factor with strong structural similarity to growth hormone (protein, UniProt P01236 29-227, looked up)
Prolactin: LPICPGGAARCQVTLRDLFDRAVVLSHYIHNLSSEMFSEFDKRYTHGRGFITKAINSCHTSSLATPEDKEQAQQMNQKDFLSLIVSILRSWNEPLYHLVTEVRGMQEAPEAILSKAVEIEEQTKRLLEGMELIVSQVHPETKENEIYPVWSGLPSLQMADEESRLSAYYNLLHCLRRDSHKIDNYLKLLKCRIIHNNNC
B5: Soybean Trypsin Inhibitor: A high-molecular-weight protein (approximately 22,500) containing 198 amino acid residues (protein, UniProt P01070 25-205, looked up)
Trypsin inhibitor A: DFVLDNEGNPLENGGTYYILSDITAFGGIRAAPTGNERCPLTVVQSRNELDKGIGTIISSPYRIRFIAEGHPLSLKFDSFAVIMLCVGIPTEWSVVEDLPEGPAVKIGENKDAMDGWFRLERVSDDEFNNYKLVFCPQQAEDDKCGDIGISIDHDDGTRRLVVSKNKPLVVQFQKLDKESL
B6: BMP-4: Bone Morphogenic Protein (protein, UniProt P12644 293-408, looked up)
Bone morphogenetic protein 4: SPKHHSQRARKKNKNCRRHSLYVDFSDVGWNDWIVAPPGYQAFYCHGDCPFPLADHLNSTNHAIVQTLVNSVNSSIPKACCVPTELSAISMLYLDEYDKVVLKNYQEMVVEGCGCR
B7: KGF: keratinocyte growth factor or FGF-7 (protein, UniProt P21781 32-194, looked up)
Fibroblast growth factor 7: CNDMTPEQMATNVNCSSPERHTRSYDYMEGGDIRVRRLFCRTQWYLRIDKRGKVKGTQEMKNNYNIMEIRTVAVGIVAIKGVESEFYLAMNKEGKLYAKKECNEDCNFKELILENHYNTYASAKWTHNGGEMFVALNQKGIPVRGKKTKKEQKTAHFLPMAIT
B8: Activin A: growth and differentiation factor (protein, UniProt P08476 311-426, looked up)
Inhibin beta A chain: GLECDGKVNICCKKQFFVSFKDIGWNDWIIAPSGYHANYCEGECPSHIAGTSGSSLSFHSTVINHYRMRGHSPFANLKSCCVPTKLRPMSMLYYDDGQNIIKKDIQNMIVEECGCS

system: conversion of stem cells into insulin producing cells; type: cell-based; conditions: statistical analysis of insulin content of supernatants, 3 donors, combinatorial array in alginate

Q: With B1 as the molecule, how does the “effect on the conversion of stem cells into insulin producing cells” value (from here on “effect on the conversion”) read?
A: Its value is “potential positive effect”.

Q: With B2 as the molecule, how does the “effect on the conversion” value read?
A: Its value is “potential negative effect”.

Q: B3 was tested. Which “effect on the conversion” value did it give?
A: The value was “potential positive effect”.

Q: B4 was tested. Which “effect on the conversion” value did it give?
A: Its value is “potential negative effect”.

Q: How did the “effect on the conversion” value turn out when B5 was run?
A: The value was “potential negative effect”.

Q: Which “effect on the conversion” value does the source give for B6 here?
A: Its value is “potential negative effect”.

Q: B7 was tested. Which “effect on the conversion” value did it give?
A: Its value is “potential positive effect”.

Q: How did the “effect on the conversion” value turn out when B8 was run?
A: Its value is “potential negative effect”.
